# Patent US9932390 (SHRINERS HOSPITAL FOR CHILDREN, dated 2018)
# Positions of bridges follow the written chain, without caps; N, C: chain ends. Chains are numbered I, II in the order given. No end group written: not given here.
# T1: α2NC2 (NC2 domain of the human collagen IX α2 chain) (human)
# T1 construct: Expressed as the Trx_α2NC2 fusion and cleaved with thrombin; also called U2
# T1 peptide: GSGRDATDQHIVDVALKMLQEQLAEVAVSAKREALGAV
# T2: α3NC2-(GPP)5CC (human, not fully specified; chain 1: Cys60 and Cys61 (collagen III cystine knot) form interchain disulfides in the oxidized trimer. Cys15 is also counted as oxidized in the calculated trimer mass.)
# T2 construct: Mixed and reoxidized as a His-tagged thioredoxin fusion, then characterized after thrombin cleavage as part of α123NC2-(GPP)5CC; also called Trx_α3NC2-(GPP)5CC (before thrombin cleavage)
# T2 peptide: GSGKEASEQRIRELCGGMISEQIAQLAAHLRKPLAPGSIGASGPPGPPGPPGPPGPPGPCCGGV
# Assays:
# [1] = target: T1, α2NC2 (NC2 domain of the human collagen …); experiment: CD at 222 nm, thermal transition at 1.87 µM complex, pH 4.5, bimolecular two-state fit
# Experimental: (§1) FIG. 9. Thermal transitions of the NC2-containing complexes. A, Thermal transition curves of α123NC2-(GPP)_5CC were recorded in 50 mM sodium acetate buffer, pH 4.5, supplemented with 0M (green circles), 1M (red circles for heating and blue circles for cooling), and 2M (cyan circles) guanidine hydrochloride using 7 μM complex concentrations and a 1-mm path length quartz cuvette. The change in collagen triple helical and α-helical contents was monitored at 230 nm with a scan rate of 1° C./min. […] The first transition followed by the increase of the CD signal is associated with the unfolding of the collagen triple helix, whereas the second transition is associated with the unfolding of the NC2 domain. […] The change in α-helical content was monitored at 222 nm with a scan rate of 0.25° C./min. The curves were globally fitted (white lines) as described herein.
# (§2) Since the α1NC2 chain is disulfide-linked to the α3NC2 chain, only two products dissociates from the complex upon denaturation and the folding reaction should be considered as bimolecular. According to this and other assumptions (see 1.1.-1.10., above), two transitions using a 10-fold difference in concentrations of the complex were separately globally fitted and yielded similar values of the standard enthalpy, $\Delta H^0$, and the standard entropy, $\Delta S^0$.
# [2] = target: T1, α2NC2 (NC2 domain of the human collagen …); experiment: CD at 222 nm, thermal transition at 18.7 µM complex, pH 4.5, bimolecular two-state fit
# Experimental: as §1, §2
# α3NC2-(GPP)5CC = target: T2, α3NC2-(GPP)5CC; experiment: oxidative folding of the three Trx fusions, non-reducing SDS-PAGE
# Experimental: Initially the purified constructs either with or without collagenous part were folded under the same oxidative conditions. The three chains of approximately equal concentrations were mixed, diluted with water and the buffer was adjusted to 100 mM Tris/HCl buffer, pH 8.6, containing 15 mM Na-phosphate, 150 mM NaCl, 150 mM imidazol, 10 mM reduced glutathione, 1 mM oxidized glutathione at 25° C. Final concentration of each chain was ~10 µM. The solution was sequentially incubated at 37° C. for 24 hours, at 30° C. for 24 hours, 25° C. for 24 hours and the pH value was periodically checked and adjusted to be not lower than 8.3. Finally, the solution was extensively dialyzed against 50 mM Tris/HCl buffer, pH 8, containing 150 mM NaCl, at room temperature to remove imidazol and reducing agents.
# 1.11.3. Results: Initial Purification of Fusion Proteins Trx_α1NC2-(GPP)_5C, Trx_α2NC2-(GPP)_5CC and Trx_α3NC2-(GPP)5CC and their Reoxidation Soluble fractions of cell lysates were separately purified over the Ni-NTA resin and analyzed on a gel (FIG. 2A, lanes 1-3). In addition to bands corresponding to monomeric species around 20 kDa, dimeric, trimeric and ladders of higher multimers were observed, indicating formation of multiple intermolecular disulfide bonds, presumably due to misfolding. […]
ΔH^0 (standard enthalpy of U13+U2 to N) [1],ΔS^0 (standard entropy of U13+U2 to N) [1],ΔH^0 (standard enthalpy of U13+U2 to N) [2],ΔS^0 (standard entropy of U13+U2 to N) [2],binding result (α3NC2-(GPP)5CC),Binder,Tm (midpoint of the coupled unfolding and dissociation) [1],Tm (midpoint of the coupled unfolding and dissociation) [2]
-200 kJ/(mol complex),-500 J/(mol complex K),-203 kJ/(mol complex),-502 J/(mol complex K),,"disulfide-bonded α1NC2-α3NC2 (NC2 domains of the human collagen IX α1 and α3 chains, linked by a disulfide) (other, disulfide I:12-II:12 (inferred), Part of the α123NC2 complex after removal of His-tagged thioredoxin; also called α1-α3; U13) chain 1: GSPTDQHIKQVCMRVIQEHFAEMAASLKRPDS chain 2: GSASEQRIRELCGGMISEQIAQLAAHLRKPLAP",51.2 ° C.,65.8 ° C.
,,,,binds,"α1NC2-(GPP)5CC (not fully specified; also: interchain disulfides via Cys62 and Cys63 in the trimer with other chains, Mixed and reoxidized as a His-tagged thioredoxin fusion, then characterized after thrombin cleavage as part of α123NC2-(GPP)5CC; also called Trx_α1NC2-(GPP)5CC (before thrombin cleavage)) peptide: GSGYPGRAPTDQHIKQVCMRVIQEHFAEMAASLKRPDSGATGASGPPGPPGPPGPPGPPGPCCGGV",,
